Numbering of substitutions follows the chain as printed.
What was measured:
Test in all cases: holdup assay
Set-up in all cases: key: below the threshold = too weak to quantify, mostly under pKd 3.1 to 4
Conditions in all cases: plain residues with an end cap or a label only (N-terminal biotin on a linker: ttds)
[1] = biological target: GRIP2_5, Q9C0E4
[2] = biological target: T1, CARD11, Q9BXL7
T1 sequence (Q9BXL7 662-765, limits assumed, looked up): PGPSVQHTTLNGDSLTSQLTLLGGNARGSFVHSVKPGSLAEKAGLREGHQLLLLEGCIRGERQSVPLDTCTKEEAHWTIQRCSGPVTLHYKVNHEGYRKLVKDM

[3] = biological target: MAGI2_3, Q86UL8
Sequence of MAGI2_3, Q86UL8 (Q86UL8 600-682): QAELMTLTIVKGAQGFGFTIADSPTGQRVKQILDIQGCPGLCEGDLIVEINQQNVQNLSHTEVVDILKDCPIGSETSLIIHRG

[4] = biological target: T2, LIN7C, Q9NUP9
T2 sequence (Q9NUP9 88-185, limits assumed, looked up): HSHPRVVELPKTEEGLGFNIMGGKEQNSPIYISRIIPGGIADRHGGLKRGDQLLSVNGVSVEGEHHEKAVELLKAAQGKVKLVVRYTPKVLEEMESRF

[5] = biological target: T3, MPP6, Q9NZW5
T3 sequence (Q9NZW5 125-219, limits assumed, looked up): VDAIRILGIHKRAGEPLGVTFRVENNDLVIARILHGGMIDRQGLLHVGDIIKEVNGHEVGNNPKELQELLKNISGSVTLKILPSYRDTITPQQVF

[6] = biological target: T4, DFNB31_3, Q9P202
T4 sequence (Q9P202 811-907, limits assumed, looked up): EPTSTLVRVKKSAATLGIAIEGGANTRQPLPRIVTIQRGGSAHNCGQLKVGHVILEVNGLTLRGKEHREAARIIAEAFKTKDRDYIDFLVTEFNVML

[7] = biological target: PDLIM1, O00151
Sequence of PDLIM1, O00151 (O00151 1-87): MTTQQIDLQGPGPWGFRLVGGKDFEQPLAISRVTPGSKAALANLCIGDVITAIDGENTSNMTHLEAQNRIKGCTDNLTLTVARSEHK

[8] = biological target: FRMPD2_1, Q68DX3
Sequence of FRMPD2_1, Q68DX3 (Q68DX3 770-861): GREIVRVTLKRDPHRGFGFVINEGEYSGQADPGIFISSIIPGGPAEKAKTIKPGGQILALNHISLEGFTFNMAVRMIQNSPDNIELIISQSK

[9] = biological target: GOPC, Q9HD26
[10] = biological target: T5, FRMPD1, Q5SYB0
T5 sequence (Q5SYB0 52-145, limits assumed, looked up): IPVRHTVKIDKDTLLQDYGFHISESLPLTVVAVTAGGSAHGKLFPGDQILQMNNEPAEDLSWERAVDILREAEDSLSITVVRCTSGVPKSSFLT

[11] = biological target: MAGI1_1, Q96QZ7
Sequence of MAGI1_1, Q96QZ7 (Q96QZ7 1-106): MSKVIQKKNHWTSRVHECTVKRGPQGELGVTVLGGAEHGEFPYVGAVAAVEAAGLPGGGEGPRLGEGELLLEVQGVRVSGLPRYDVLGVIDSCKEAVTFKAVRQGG

[12] = biological target: T6, APBA1_1, Q02410
T6 sequence (Q02410 651-752, limits assumed, looked up): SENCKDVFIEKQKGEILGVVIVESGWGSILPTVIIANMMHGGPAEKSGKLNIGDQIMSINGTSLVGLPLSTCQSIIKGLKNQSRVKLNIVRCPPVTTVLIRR

[13] = biological target: T7, LIN7A, O14910
T7 sequence (O14910 103-200, limits assumed, looked up): T2 sequence (Q9NUP9 88-185, limits assumed, looked up) with E13D, I20V, I40V, D42E, Q77K, G78D, K79S, S96A

[14] = biological target: T8, NHERF3_3, Q5T2W1
T8 sequence (Q5T2W1 238-333, limits assumed, looked up): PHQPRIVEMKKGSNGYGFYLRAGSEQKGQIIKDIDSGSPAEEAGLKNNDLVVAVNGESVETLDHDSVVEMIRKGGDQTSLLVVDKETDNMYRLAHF

[15] = biological target: FRMPD2_2, Q68DX3
Sequence of FRMPD2_2, Q68DX3 (Q68DX3 944-1038): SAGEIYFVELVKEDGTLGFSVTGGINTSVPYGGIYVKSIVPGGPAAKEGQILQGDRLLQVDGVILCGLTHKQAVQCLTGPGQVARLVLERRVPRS

[16] = biological target: GRIP2_6, Q9C0E4
Sequence of GRIP2_6, Q9C0E4 (Q9C0E4 648-740): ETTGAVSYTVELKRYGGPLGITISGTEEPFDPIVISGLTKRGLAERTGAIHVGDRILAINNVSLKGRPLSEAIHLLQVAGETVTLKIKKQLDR

[17] = biological target: FRMPD4, Q14CM0
Sequence of FRMPD4, Q14CM0 (Q14CM0 67-160): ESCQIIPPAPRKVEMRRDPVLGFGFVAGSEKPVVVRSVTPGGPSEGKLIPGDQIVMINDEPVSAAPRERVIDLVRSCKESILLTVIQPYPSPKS

[18] = biological target: LNX1_2, Q8TBB1
Sequence of LNX1_2, Q8TBB1 (Q8TBB1 371-470): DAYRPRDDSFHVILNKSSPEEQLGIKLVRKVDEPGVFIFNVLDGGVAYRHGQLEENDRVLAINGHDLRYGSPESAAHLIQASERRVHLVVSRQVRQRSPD

[19] = biological target: Inadl_9, Q8NI35
Sequence of Inadl_9, Q8NI35 (Q8NI35 1530-1615): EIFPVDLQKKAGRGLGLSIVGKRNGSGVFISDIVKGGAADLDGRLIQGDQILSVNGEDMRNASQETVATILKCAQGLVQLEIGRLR

[20] = biological target: DLG4_2, P78352
Sequence of DLG4_2, P78352 (P78352 155-259): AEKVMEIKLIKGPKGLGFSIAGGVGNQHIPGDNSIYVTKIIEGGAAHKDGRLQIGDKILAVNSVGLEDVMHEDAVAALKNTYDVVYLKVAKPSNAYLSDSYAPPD

[21] = biological target: T9, PDZD2_2, O15018
T9 sequence (O15018 329-429, limits assumed, looked up): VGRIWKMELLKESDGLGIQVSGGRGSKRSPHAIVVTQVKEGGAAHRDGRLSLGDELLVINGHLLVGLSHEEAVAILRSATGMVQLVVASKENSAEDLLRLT

[22] = biological target: T10, MPP2, Q14168
T10 sequence (Q14168 180-250, limits assumed, looked up): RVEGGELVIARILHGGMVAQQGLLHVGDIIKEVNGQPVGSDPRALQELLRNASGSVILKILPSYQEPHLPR

[23] = biological target: T11, GRIP1_3, Q9Y3R0
T11 sequence (Q9Y3R0 247-346, limits assumed, looked up): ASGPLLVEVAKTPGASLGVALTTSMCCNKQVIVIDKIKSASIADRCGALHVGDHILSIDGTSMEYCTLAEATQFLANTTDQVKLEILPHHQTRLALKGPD

[24] = biological target: T12, GRIP1_2, Q9Y3R0
T12 sequence (Q9Y3R0 145-248, limits assumed, looked up): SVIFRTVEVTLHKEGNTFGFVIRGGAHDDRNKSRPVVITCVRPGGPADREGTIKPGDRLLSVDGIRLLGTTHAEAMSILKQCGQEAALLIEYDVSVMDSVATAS

[25] = biological target: PARD3_3, Q8TEW0
Sequence of PARD3_3, Q8TEW0 (Q8TEW0 582-685): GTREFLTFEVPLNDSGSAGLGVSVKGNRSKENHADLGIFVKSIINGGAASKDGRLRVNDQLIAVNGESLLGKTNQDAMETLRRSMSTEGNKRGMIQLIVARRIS

[26] = biological target: Inadl_10, Q8NI35
Sequence of Inadl_10, Q8NI35 (Q8NI35 1673-1763): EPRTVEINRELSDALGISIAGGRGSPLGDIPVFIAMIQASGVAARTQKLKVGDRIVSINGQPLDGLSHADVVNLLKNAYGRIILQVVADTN

Sequence of GRIP2_5, Q9C0E4 (Q9C0E4 544-642): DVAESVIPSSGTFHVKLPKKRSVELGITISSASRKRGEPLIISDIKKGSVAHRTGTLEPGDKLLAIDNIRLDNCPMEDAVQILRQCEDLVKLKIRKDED

B1: VANGL1, Q8TAA9 (peptide)
chain: VLRLQSETSV
[1]
  pKd: below the threshold
[2]
  pKd: below the threshold
[3]
  pKd: below the threshold
[4]
  pKd: 3.94
[5]
  pKd: below the threshold
[6]
  pKd: below the threshold
[7]
  pKd: below the threshold
[8]
  pKd: below the threshold
[9]
  pKd: below the threshold
[10]
  pKd: below the threshold
[11]
  pKd: below the threshold
[12]
  pKd: below the threshold
[13]
  pKd: below the threshold
[14]
  pKd: below the threshold
[15]
  pKd: 3.72
[16]
  pKd: below the threshold
[17]
  pKd: below the threshold
[18]
  pKd: below the threshold
[19]
  pKd: below the threshold
[20]
  pKd: 4.71
[21]
  pKd: 4.12
[22]
  pKd: below the threshold
[23]
  pKd: below the threshold
[24]
  pKd: below the threshold
[25]
  pKd: below the threshold
[26]
  pKd: below the threshold

B2: KCNT2, Q6UVM3 (peptide)
chain: GQDSREETQL
[1]
  pKd: below the threshold
[2]
  pKd: below the threshold
[3]
  pKd: below the threshold
[4]
  pKd: below the threshold
[5]
  pKd: below the threshold
[6]
  pKd: below the threshold
[7]
  pKd: below the threshold
[8]
  pKd: below the threshold
[9]
  pKd: 4.01
[10]
  pKd: below the threshold
[11]
  pKd: below the threshold
[12]
  pKd: below the threshold
[13]
  pKd: below the threshold
[14]
  pKd: below the threshold
[15]
  pKd: below the threshold
[16]
  pKd: below the threshold
[17]
  pKd: 4.48
[18]
  pKd: below the threshold
[19]
  pKd: below the threshold
[20]
  pKd: 3.62
[21]
  pKd: below the threshold
[22]
  pKd: below the threshold
[23]
  pKd: below the threshold
[24]
  pKd: below the threshold
[25]
  pKd: 4.04
[26]
  pKd: below the threshold
